Experiment [1] has as its target T1, Prostaglandin F2 Receptor Inhibitor (PTGFRN), expressed by cells (human, UniProt Q9P2B2 26-879).
T1 construct: whole, on cells; Also used for the endogenous protein in Brij-O10 cell lysates in the co-immunoprecipitation experiments; also called cell surface PTGFRN; prostaglandin F2 receptor negative regulator
T1 sequence (looked up): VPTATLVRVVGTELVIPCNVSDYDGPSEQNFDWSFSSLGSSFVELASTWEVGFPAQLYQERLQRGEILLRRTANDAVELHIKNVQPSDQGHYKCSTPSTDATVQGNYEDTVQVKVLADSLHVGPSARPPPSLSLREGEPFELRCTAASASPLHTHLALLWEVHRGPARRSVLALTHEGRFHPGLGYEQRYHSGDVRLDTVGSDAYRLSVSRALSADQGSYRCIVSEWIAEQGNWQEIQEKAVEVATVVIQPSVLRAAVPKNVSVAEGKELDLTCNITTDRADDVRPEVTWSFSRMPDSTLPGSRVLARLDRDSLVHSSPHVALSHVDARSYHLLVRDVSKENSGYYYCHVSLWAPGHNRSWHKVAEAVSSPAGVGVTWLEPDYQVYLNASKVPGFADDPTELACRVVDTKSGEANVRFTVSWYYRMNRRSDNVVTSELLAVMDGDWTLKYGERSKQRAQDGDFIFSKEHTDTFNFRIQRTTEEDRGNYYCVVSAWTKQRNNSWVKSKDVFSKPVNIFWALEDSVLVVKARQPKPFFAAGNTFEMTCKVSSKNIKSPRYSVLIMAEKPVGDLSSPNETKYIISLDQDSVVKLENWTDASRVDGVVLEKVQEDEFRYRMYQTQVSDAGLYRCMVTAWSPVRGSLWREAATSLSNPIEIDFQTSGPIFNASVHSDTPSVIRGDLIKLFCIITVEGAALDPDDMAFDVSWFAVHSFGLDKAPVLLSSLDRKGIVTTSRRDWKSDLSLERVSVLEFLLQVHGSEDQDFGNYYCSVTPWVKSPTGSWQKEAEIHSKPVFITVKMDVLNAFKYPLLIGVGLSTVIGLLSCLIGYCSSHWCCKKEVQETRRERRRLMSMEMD
Briefly: flow binding on cells.

Experiment [2] has as its target T2, PTGFRN as used in the Octet / BLI affinity measurement (UniProt Q9P2B2 26-832, limits assumed).
T2 sequence (looked up): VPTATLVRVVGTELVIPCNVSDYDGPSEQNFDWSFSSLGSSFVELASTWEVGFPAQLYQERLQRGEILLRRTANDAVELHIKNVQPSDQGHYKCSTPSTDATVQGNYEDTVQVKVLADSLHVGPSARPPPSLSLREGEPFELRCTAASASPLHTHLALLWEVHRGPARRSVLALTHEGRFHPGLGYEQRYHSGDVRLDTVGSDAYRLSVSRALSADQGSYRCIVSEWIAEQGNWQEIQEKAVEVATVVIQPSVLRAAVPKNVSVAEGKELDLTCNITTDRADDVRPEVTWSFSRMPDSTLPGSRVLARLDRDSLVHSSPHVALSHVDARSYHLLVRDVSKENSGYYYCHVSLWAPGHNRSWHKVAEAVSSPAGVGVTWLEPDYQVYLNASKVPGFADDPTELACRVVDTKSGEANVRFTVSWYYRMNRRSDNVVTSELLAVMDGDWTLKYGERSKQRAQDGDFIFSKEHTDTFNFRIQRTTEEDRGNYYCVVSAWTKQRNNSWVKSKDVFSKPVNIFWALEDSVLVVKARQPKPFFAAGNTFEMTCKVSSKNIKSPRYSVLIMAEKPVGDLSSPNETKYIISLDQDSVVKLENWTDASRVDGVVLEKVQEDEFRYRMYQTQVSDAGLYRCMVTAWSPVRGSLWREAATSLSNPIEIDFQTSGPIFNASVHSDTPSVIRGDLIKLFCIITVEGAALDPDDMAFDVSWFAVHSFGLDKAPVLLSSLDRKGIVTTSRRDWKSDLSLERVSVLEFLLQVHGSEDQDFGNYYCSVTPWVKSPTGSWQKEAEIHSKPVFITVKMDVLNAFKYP
Briefly: Bi-Layer Interferometry (BLI), Octet Red96.

For experiment [3], the target named is T2, PTGFRN as used in the Octet / BLI …. Description: Octet method.

Substitutions are numbered along the chain they refer to.

B1: fully human anti-PTGFRN monoclonal antibody 12D8 (antibody, IgG1, V domains shown)
VH: EVQLVESGGGLVQPGRSLRLSCAASGFTFDDYAMHWVRQAPGKGLEWVSGISWSSGSLGYEDSVKGRFTISRDNAKKTLYLQMNSLRAEDTALYYCAKDMGFGDFLYYYGMDVWGQGTTVTVSS
VL: EIVLTQSPGTLSLSPGERATLSCRASQSVSSSYLTWYQQKPGQAPRLLIYGASSRATGIPDRFSGSGSGTDFTLTIRRLEPEDFAVYYCQQYGDSPPWTFGQGTKVEIK
On to B1, for which, in experiment [1], the binding result is on record as “binds”.

B2: fully human anti-PTGFRN monoclonal antibody 8C7 (antibody, V domains shown)
VH: QLQLQESGPGLVKPSETLSLTCTVSGGSISSSSYYWGWIRQPPGKGLEWIGSIYYGGSTYYNPSLKSRVTISVDTSTNQFSLKLNSVTAADTAVYYCARQGLGSFDCWGQGTLVTVSS
VL: DVVMTQSPLSLPVTLGQPASISCRSSQSLVHSDGNTYLNWFQQRPGQSPRRLIYKVSNRDSGVPDRFSGSGSGTDFTLKISGVEAEDVGIYYCMQGTHWPPLTFGGGTKVEIK
notes: also called anti-PTGFRN antibody 8C7; internalizing anti-PTGFRN 8C7
Take B2: in experiment [2], the Kd was 0.001 nM.

B3: fully human anti-PTGFRN monoclonal antibody 6B2 (antibody, IgG1, V domains shown)
VH: B2 VH with G37D, S52T, T77K, Q100G, G101N, L102S, G103Y, S104G, F105L, C107Y
VL: B2 VL with T36M, G82R, G96S, L102V, G106Q, V110L
As for B3, the binding result in experiment [1] is recorded as “binds”.

B4: fully human anti-PTGFRN monoclonal antibody 4F8 (antibody, IgG4, V domains shown)
VH: EVQLVESGEGLVQPGRSLRLSCAASGFTFDDYAMHWVRQAPGKGLEWVSGISWDSGRIGYADSVKGRFTISRDNAKNSLYLQMNSLRAEDTALYYCAKDRGGGNWNYYYYGMDVWGQGTTVTVSS
VL: DIQMTQSPSSLSASVGDRVTITCRASQGISNYLAWFQQKPGKAPKSLIYAASSLQSGVPSKFSGSGSGTDFTLTISSLQPEDFATYYCQQYNSFPFTFGPGTKVDIK
B4 displayed a Kd in experiment [3] of 5.2 nM.

(Values after patent EP4695300A2 (dated 2026).)
